The results in this text go back to patent publication US20140087995A1 (published 2014).

Numbered stars: 1 amine (or outer) side, 2 acyl side, 3 side chain; on linkers, the order of the positions; unused ones are H or OH. Bridge positions count the residues as written; N and C are the ends. Side chains are listed from the residue outwards. Ends that are not written are not given here. * marks the point of attachment. C20 diacid = O=C(O)CCCCCCCCCCCCCCCCCCC(=O)*; γGlu = O=C(O)[C@H](CCC(=O)[*:2])N[*:1]

Experiment [1] addresses T1, rat calcitonin receptor (rat, UniProt P32214 25-516).
T1 construct: whole, on cells; membranes of transiently transfected BHK tk'ts 13 cells (Assay VIII); also called rCTR; rat calcitonin (a) receptor
T1 sequence (looked up): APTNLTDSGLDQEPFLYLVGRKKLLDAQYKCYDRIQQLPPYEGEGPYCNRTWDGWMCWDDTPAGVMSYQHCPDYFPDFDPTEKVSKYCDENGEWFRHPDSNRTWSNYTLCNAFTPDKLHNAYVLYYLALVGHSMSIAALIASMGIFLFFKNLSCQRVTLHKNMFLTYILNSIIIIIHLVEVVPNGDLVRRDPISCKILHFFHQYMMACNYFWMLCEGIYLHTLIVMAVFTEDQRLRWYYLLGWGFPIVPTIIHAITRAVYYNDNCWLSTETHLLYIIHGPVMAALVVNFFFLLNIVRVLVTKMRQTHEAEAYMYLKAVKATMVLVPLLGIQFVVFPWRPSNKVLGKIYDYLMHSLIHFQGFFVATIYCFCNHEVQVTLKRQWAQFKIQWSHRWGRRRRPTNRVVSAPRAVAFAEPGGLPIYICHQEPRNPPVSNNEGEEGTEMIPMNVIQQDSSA
The experiment in a line: IC50 on rat calcitonin receptor divided by IC50 on rat amylin receptor (SPA competition).

Experiment [2] deals with T2, human calcitonin receptor (human, UniProt P30988 25-474).
T2 construct: whole, on cells; membranes of stably transfected BHK cells (Assay VII); also called hCTR; hCT
T2 sequence (looked up): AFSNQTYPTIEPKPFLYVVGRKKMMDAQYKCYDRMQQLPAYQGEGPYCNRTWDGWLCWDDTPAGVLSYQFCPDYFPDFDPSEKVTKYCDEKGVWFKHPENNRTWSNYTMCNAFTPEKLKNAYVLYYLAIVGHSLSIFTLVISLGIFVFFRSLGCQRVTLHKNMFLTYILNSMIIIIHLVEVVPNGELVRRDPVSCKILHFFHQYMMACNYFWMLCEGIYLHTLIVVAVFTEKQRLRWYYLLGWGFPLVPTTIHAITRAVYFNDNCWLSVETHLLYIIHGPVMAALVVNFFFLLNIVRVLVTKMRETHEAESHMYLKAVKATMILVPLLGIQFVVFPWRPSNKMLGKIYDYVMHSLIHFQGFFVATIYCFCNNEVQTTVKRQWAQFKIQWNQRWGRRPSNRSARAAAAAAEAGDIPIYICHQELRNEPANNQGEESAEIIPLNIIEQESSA
Description: IC50 on human calcitonin receptor divided by IC50 on human amylin receptor (SPA competition). The method, boiled down: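 Competition binding by SPA with cell membranes (35 ng/μL) and SPA beads in 50 mM Hepes pH 7.4 with 1 mM CaCl2, 5 mM MgCl2, 0.1% OA and 0.02% Tween20. Incubated 120 min at 25 °C with shaking, then counted.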

For experiment [3], the target named is T1, rat calcitonin receptor. Description: SPA competition with 125I-calcitonin, membranes of BHK cells with rat calcitonin receptor (Assay VIII).
Experiment [4] has as its target T3, rat amylin receptor (rat calcitonin receptor + rat RAMP 3) (rat, UniProt P32214 25-516; Q9JJ73 23-147).
T3 construct: whole, on cells; membranes of transiently transfected BHK tk'ts 13 cells (Assay VI); also called rAmylin-R; rat amylin 3(a) receptor
T3 sequence (looked up) 1: T1 sequence (looked up)
T3 sequence (looked up) 2: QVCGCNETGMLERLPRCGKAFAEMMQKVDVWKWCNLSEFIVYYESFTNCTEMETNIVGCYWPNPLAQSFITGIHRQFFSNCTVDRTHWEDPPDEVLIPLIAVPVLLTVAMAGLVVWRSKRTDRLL
The experiment in a line: SPA competition with 125I-rat amylin, membranes of BHK cells with rat calcitonin receptor + rat RAMP3 (Assay VI).

B1: N{Alpha-1}-[(4S)-4-carboxy-4-(19-carboxynonadecanoylamino)butanoyl]-[Glu14,Arg17,Pro21,Pro27,Lys34]-h-amylin (peptide)
peptide: {C20 diacid-γGlu}-KCNTATCATQRLAEFLRHSSPNFGAIPSSTNVGKNTY-NH2
modifications: disulfide 2-7 (inferred)
notes: analogue of human amylin; also called compound 36
B1: the “Ratio rCT/rAmylin binding” value with rat calcitonin receptor [1] turned out to be 32.4. In experiment [2], the “Ratio hCT/hAmylin binding” value is 15.7. For the same molecule, the IC50 in the experiment with rat calcitonin receptor [3] came to 60.1 nM; in experiment [4], 1.86 nM.

B2: N^ε1-[(4S)-4-carboxy-4-(19-carboxynonadecanoylamino)butanoyl]-[Arg17,Pro21,Pro27,Lys35]-h-amylin (peptide)
peptide: K([γGlu-C20 diacid])CNTATCATQRLANFLRHSSPNFGAIPSSTNVGSKTY-NH2
modifications: disulfide 2-7 (inferred)
notes: analogue of human amylin; also called compound 35
As for B2, the “Ratio rCT/rAmylin binding” value with rat calcitonin receptor [1] was 65.1. Besides, in experiment [2], the “Ratio hCT/hAmylin binding” value stood at 50.3. For the same molecule, the figures for the IC50 (in the experiment with rat calcitonin receptor [3]; in experiment [4]) were 61.7 nM and 0.948 nM, respectively.

B3: N^ε1-[(4S)-4-carboxy-4-[[(4S)-4-carboxy-4-(19-carboxynonadecanoylamino)butanoyl]amino]butanoyl]-[Asp14,Arg17,Pro22,Pro26,Asp35]-h-amylin (peptide)
peptide: K([γGlu-γGlu-C20 diacid])CNTATCATQRLADFLRHSSNPFGAPLSSTNVGSDTY-NH2
modifications: disulfide 2-7 (inferred)
notes: analogue of human amylin; also called compound 3
Take B3: the “Ratio rCT/rAmylin binding” value in the experiment with rat calcitonin receptor [1] was 16.7. The “Ratio hCT/hAmylin binding” value in experiment [2] was found to be 17.3. Also, the results for the IC50 (with rat calcitonin receptor [3]; in experiment [4]) were 16.7 nM and 1 nM, respectively.

B4: N^ε1-[(4S)-4-carboxy-4-[[(4S)-4-carboxy-4-(19-carboxynonadecanoylamino)butanoyl]amino]butanoyl]-[Asp14,Arg17,Pro21,Pro26,Asp35]-h-amylin (peptide)
peptide: K([γGlu-γGlu-C20 diacid])CNTATCATQRLADFLRHSSPNFGAPLSSTNVGSDTY-NH2
modifications: disulfide 2-7 (inferred)
notes: analogue of human amylin; also called compound 1
Turning to B4, in the experiment with rat calcitonin receptor [1], the “Ratio rCT/rAmylin binding” value came out at 104. In addition, in experiment [2], the “Ratio hCT/hAmylin binding” value was 27.6. The IC50 was 135 nM with rat calcitonin receptor [3] and 1.3 nM in experiment [4].

B5: N^α1-[(4S)-4-carboxy-4-(19-carboxynonadecanoylamino)butanoyl]-[Glu14,Arg17,Pro21,Pro25,Pro28,Pro29]-h-amylin (peptide)
peptide: {C20 diacid-γGlu}-KCNTATCATQRLAEFLRHSSPNFGPILPPTNVGSNTY-NH2
modifications: disulfide 2-7 (inferred)
notes: analogue of human amylin; also called compound 6
B5: in the experiment with rat calcitonin receptor [1], the “Ratio rCT/rAmylin binding” value is 21.7. The “Ratio hCT/hAmylin binding” value in experiment [2] amounted to 20. Moreover, the results for the IC50 (in the experiment with rat calcitonin receptor [3]; in experiment [4]) were 51.5 nM and 2.37 nM, respectively.

B6: N^ε-[(4S)-4-carboxy-4-(19-carboxynonadecanoylamino)butanoyl]Lys[Arg1,Arg17,Pro21,Pro27,His35]-h-amylin (peptide)
peptide: K([γGlu-C20 diacid])RCNTATCATQRLANFLRHSSPNFGAIPSSTNVGSHTY-NH2
modifications: disulfide 3-8 (inferred)
notes: analogue of human amylin extended by Lys at the N-terminus; also called compound 44
Regarding B6, in the experiment with rat calcitonin receptor [1], the “Ratio rCT/rAmylin binding” value came to 53.3. Also, the “Ratio hCT/hAmylin binding” value in experiment [2] is 17.7. Also, the IC50 in the experiment with rat calcitonin receptor [3] was 19.6 nM; in experiment [4] it was 0.369 nM.

B7: N^-1-[(4S)-4-carboxy-4-(19-carboxynonadecanoylamino)butanoyl]-Gly[Arg1,Arg17,Pro21,Pro27]-h-amylin (peptide)
peptide: {C20 diacid-γGlu}-GRCNTATCATQRLANFLRHSSPNFGAIPSSTNVGSNTY-NH2
modifications: disulfide 3-8 (inferred)
notes: analogue of human amylin extended by Gly at the N-terminus; also called compound 46
Take B7: the “Ratio rCT/rAmylin binding” value with rat calcitonin receptor [1] came out at 142. Moreover, the “Ratio hCT/hAmylin binding” value in experiment [2] was 48.9. Further, the IC50 in the experiment with rat calcitonin receptor [3] stood at 46.8 nM; in experiment [4] it was 0.33 nM.

B8: N^-1-[(4S)-4-carboxy-4-(19-carboxynonadecanoylamino)butanoyl]-Gly[Arg1,Arg17,Pro21,Pro27,His35]-h-amylin (peptide)
peptide: {C20 diacid-γGlu}-GRCNTATCATQRLANFLRHSSPNFGAIPSSTNVGSHTY-NH2
modifications: disulfide 3-8 (inferred)
notes: analogue of human amylin extended by Gly at the N-terminus; also called compound 47
Turning to B8, in the experiment with rat calcitonin receptor [1], the “Ratio rCT/rAmylin binding” value turned out to be 84.3. Besides, the “Ratio hCT/hAmylin binding” value in experiment [2] was 44.9. The IC50 came out at 17.1 nM with rat calcitonin receptor [3] and 0.203 nM in experiment [4].

B9: N^ε1-[(4S)-4-carboxy-4-(19-carboxynonadecanoylamino)butanoyl]-[Arg17,Pro21,Pro27]-h-amylin (peptide)
peptide: K([γGlu-C20 diacid])CNTATCATQRLANFLRHSSPNFGAIPSSTNVGSNTY-NH2
modifications: disulfide 2-7 (inferred)
notes: analogue of human amylin; also called compound 48
Consider B9, for which, in the experiment with rat calcitonin receptor [1], the “Ratio rCT/rAmylin binding” value worked out at 201. Also, the “Ratio hCT/hAmylin binding” value in experiment [2] stood at 69.7. Further, the results for the IC50 (in the experiment with rat calcitonin receptor [3]; in experiment [4]) were 112 nM and 0.558 nM, respectively.
